Experimental data as given in doi:10.1101/2022.02.25.482027 (bioRxiv, 2022).

How the values were obtained:
Assay in all cases: co-sedimentation
FtsA(E14R) = biological target: T1, FtsA(E14R) (E. coli, UniProt P0ABH0 1-420, E14R)
T1 sequence: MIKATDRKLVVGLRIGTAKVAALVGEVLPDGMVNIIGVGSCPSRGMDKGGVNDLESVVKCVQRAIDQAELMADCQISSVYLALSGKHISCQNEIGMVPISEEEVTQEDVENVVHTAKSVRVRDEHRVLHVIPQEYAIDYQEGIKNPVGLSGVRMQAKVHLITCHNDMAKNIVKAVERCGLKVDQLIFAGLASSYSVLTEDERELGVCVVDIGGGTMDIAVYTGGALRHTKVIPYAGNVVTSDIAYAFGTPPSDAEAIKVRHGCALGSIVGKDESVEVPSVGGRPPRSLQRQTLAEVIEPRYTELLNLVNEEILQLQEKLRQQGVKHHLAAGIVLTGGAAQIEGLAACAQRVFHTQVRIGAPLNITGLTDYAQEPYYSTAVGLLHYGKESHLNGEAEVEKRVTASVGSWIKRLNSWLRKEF

FtsA(S84L) = biological target: T2, FtsA(S84L) (E. coli, UniProt P0ABH0 1-420, S84L)
T2 sequence: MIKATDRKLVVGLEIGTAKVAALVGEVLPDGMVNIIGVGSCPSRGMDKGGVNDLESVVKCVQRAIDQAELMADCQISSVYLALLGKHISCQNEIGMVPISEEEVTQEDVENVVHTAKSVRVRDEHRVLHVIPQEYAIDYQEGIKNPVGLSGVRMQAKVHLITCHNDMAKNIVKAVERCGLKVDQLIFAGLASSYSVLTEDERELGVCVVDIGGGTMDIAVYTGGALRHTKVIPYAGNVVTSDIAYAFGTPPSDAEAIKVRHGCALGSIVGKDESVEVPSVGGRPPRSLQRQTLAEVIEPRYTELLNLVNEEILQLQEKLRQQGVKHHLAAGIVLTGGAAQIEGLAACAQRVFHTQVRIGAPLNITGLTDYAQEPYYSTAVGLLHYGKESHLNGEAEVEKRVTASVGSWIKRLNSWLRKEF

FtsA(A188V) = biological target: T3, FtsA(A188V) (E. coli, UniProt P0ABH0 1-420, A188V)
T3 sequence: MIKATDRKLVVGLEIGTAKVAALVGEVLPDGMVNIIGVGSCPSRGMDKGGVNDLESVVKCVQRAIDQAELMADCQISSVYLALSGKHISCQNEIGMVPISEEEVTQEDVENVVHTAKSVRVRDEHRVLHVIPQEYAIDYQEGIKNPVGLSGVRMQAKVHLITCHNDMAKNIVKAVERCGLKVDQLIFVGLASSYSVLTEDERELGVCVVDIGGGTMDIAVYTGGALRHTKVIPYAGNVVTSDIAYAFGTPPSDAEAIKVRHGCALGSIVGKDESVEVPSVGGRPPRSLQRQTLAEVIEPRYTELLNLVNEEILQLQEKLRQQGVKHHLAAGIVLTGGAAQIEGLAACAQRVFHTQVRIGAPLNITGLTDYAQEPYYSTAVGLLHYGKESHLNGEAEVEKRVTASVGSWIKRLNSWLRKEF

FtsA(Y375A) = biological target: T4, FtsA(Y375A) (E. coli, UniProt P0ABH0 1-420, Y375A)
T4 sequence: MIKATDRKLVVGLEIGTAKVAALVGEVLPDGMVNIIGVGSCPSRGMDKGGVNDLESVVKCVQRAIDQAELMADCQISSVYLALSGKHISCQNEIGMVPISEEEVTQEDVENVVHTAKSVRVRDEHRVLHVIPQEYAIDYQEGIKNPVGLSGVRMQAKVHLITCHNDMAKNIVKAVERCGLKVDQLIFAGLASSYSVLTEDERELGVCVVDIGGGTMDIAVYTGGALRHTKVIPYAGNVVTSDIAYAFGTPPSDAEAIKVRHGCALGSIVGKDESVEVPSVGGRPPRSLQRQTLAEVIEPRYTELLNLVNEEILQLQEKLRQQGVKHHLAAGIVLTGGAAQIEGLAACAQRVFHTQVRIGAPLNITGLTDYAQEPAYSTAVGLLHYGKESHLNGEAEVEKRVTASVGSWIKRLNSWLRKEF

Measured: binding result

B1: FtsZ (natural protein)
chain: MFEPMELTNDAVIKVIGVGGGGGNAVEHMVRERIEGVEFFAVNTDAQALRKTAVGQTIQIGSGITKGLGAGANPEVGRNAADEDRDALRAALEGADMVFIAAGMGGGTGTGAAPVVAEVAKDLGILTVAVVTKPFNFEGKKRMAFAEQGITELSKHVDSLITIPNDKLLKVLGRGISLLDAFGAANDVLKGAVQGIAELITRPGLMNVDFADVRTVMSEMGYAMMGSGVASGEDRAEEAAEMAISSPLLEDIDLSGARGVLVNITAGFDLRLDEFETVGNTIRAFASDNATVVIGTSLDPDMNDELRVTVVATGIGMDKRPEITLVTNKQVQQPVMDRYQQHGMAPLTQEQKPVAKVVNDNAPQTAKEPDYLDIPAFLRKQAD
binds: all assays above
